Four substances from paper PMC5639704 can be followed below.

This assay concerns the target Human TRF2^TRFH (residues 42-245) (human). The assay can be described thus: ITC. On the technique in general: ITC needs no label: the signal is the heat of the interaction.

Turning to WT mNBS1 peptide, the Kd came out at 19.8 µM.
In turn, mNBS1^S433A peptide gave a Kd of 21.7 µM.
In the case of “hNBS1^S432A peptide (423–438) (from UniProt O60934 423-438)” it was 16 µM; in that of “WT hNBS1 peptide (423–438) (from UniProt O60934 423-438)”, 17 µM.

A word on the Kd: it is a measure of binding affinity in units of concentration. Read a high Kd as lower affinity.
